Results reported in the supplement of paper PMC10567573.

B1: KCNAB2 (parent)
chain: SSIIHEIDSILGNKPYSKKDYRS
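Note: lentivirally expressed fusions sorted by FACS into six bins by GFP to DsRed ratio, PSI derived from sequencing read proportions per bin multiplied by bin number.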

Variants of: B1
Experiment: protein stability index of a GFP-peptide fusion (GPS, HEK-293T) (PSI 1-6); higher = more stable
Details: c terminus: native
Variant SSIIHEIDSILGNKPYSKKDCRS has a protein stability index of 3.13. Work on SSIIHEIDSILGNKPYSKKDVRS yielded a protein stability index of 3.27. Work on SSIIHEIDSILGNKPYSKKDLRS yielded a protein stability index of 2.37. Variant SSIIHEIDSILGNKPYSKKDKRS has a protein stability index of 3.66. In the case of SSIIHEIDSILGNKPYSKKDQRS, the protein stability index is reported as 2.2. Work on SSIIHEIDSILGNKPYSKKDHRS yielded a protein stability index of 3.15. With SSIIHEIDSILGNKPYSKKDDRS the protein stability index was 4.07. SSIIHEIDSILGNKPYSKKDRRS gave a protein stability index of 1.77. With SSIIHEIDSILGNKPYSKKDTRS the protein stability index was 2.35. Variant SSIIHEIDSILGNKPYSKKDERS has a protein stability index of 3.37. For SSIIHEIDSILGNKPYSKKDFRS, the protein stability index was 2.52. SSIIHEIDSILGNKPYSKKDSRS gave a protein stability index of 1.08. With SSIIHEIDSILGNKPYSKKDGRS the protein stability index was 3.37. With SSIIHEIDSILGNKPYSKKDMRS the protein stability index was 2.17. SSIIHEIDSILGNKPYSKKDWRS showed a protein stability index of 3.28. SSIIHEIDSILGNKPYSKKDARS showed a protein stability index of 3.77. For SSIIHEIDSILGNKPYSKKDIRS, the protein stability index was 2.47. SSIIHEIDSILGNKPYSKKDPRS showed a protein stability index of 5.12. For SSIIHEIDSILGNKPYSKKDNRS, the protein stability index was 3.64. Variant SSIIHEIDSILGNKPYSKKIYRS has a protein stability index of 2.41. Work on SSIIHEIDSILGNKPYSKKQYRS yielded a protein stability index of 2.04. In the case of SSIIHEIDSILGNKPYSKKMYRS, the protein stability index is reported as 2.96. With SSIIHEIDSILGNKPYSKKFYRS the protein stability index was 2.37. With SSIIHEIDSILGNKPYSKKKYRS the protein stability index was 2.47. In the case of SSIIHEIDSILGNKPYSKKSYRS, the protein stability index is reported as 2.78. SSIIHEIDSILGNKPYSKKAYRS showed a protein stability index of 2.14. SSIIHEIDSILGNKPYSKKCYRS showed a protein stability index of 2.01. Work on SSIIHEIDSILGNKPYSKKEYRS yielded a protein stability index of 2.89. For SSIIHEIDSILGNKPYSKKTYRS, the protein stability index was 3.55. In the case of SSIIHEIDSILGNKPYSKKGYRS, the protein stability index is reported as 3.07. SSIIHEIDSILGNKPYSKKYYRS gave a protein stability index of 2.07. With SSIIHEIDSILGNKPYSKKPYRS the protein stability index was 4.21. SSIIHEIDSILGNKPYSKKHYRS gave a protein stability index of 2.51. Work on SSIIHEIDSILGNKPYSKKWYRS yielded a protein stability index of 1.92. In the case of SSIIHEIDSILGNKPYSKKLYRS, the protein stability index is reported as 2.63. SSIIHEIDSILGNKPYSKKVYRS showed a protein stability index of 2.03. SSIIHEIDSILGNKPYSKKNYRS gave a protein stability index of 3.2. Work on SSIIHEIDSILGNKPYSKEDYRS yielded a protein stability index of 4.45. For SSIIHEIDSILGNKPYSKDDYRS, the protein stability index was 4.08. Variant SSIIHEIDSILGNKPYSKPDYRS has a protein stability index of 4.09. Variant SSIIHEIDSILGNKPYSKADYRS has a protein stability index of 3.55. With SSIIHEIDSILGNKPYSKRDYRS the protein stability index was 2.89. SSIIHEIDSILGNKPYSKNDYRS showed a protein stability index of 4.06. SSIIHEIDSILGNKPYSKGDYRS gave a protein stability index of 3.84. With SSIIHEIDSILGNKPYSKYDYRS the protein stability index was 2.45. Work on SSIIHEIDSILGNKPYSKTDYRS yielded a protein stability index of 4.16. SSIIHEIDSILGNKPYSKFDYRS gave a protein stability index of 2.66. In the case of SSIIHEIDSILGNKPYSKWDYRS, the protein stability index is reported as 2.8. SSIIHEIDSILGNKPYSKMDYRS showed a protein stability index of 3.75. Work on SSIIHEIDSILGNKPYSKLDYRS yielded a protein stability index of 3.58. SSIIHEIDSILGNKPYSKVDYRS gave a protein stability index of 3.82. With SSIIHEIDSILGNKPYSKQDYRS the protein stability index was 3.87. SSIIHEIDSILGNKPYSKSDYRS showed a protein stability index of 3.92. For SSIIHEIDSILGNKPYSKCDYRS, the protein stability index was 3.2. In the case of SSIIHEIDSILGNKPYSKIDYRS, the protein stability index is reported as 3.3. With SSIIHEIDSILGNKPYSKHDYRS the protein stability index was 3.9. With SSIIHEIDSILGNKPYSKKDYRN the protein stability index was 4.49. With SSIIHEIDSILGNKPYSKKDYRR the protein stability index was 2.18. With SSIIHEIDSILGNKPYSKKDYRI the protein stability index was 3.74. With SSIIHEIDSILGNKPYSKKDYRM the protein stability index was 3.96. SSIIHEIDSILGNKPYSKKDYRE gave a protein stability index of 4.19. SSIIHEIDSILGNKPYSKKDYRV gave a protein stability index of 3.68. SSIIHEIDSILGNKPYSKKDYRQ gave a protein stability index of 3.6. SSIIHEIDSILGNKPYSKKDYRL showed a protein stability index of 3.9. In the case of SSIIHEIDSILGNKPYSKKDYRW, the protein stability index is reported as 2.72. With SSIIHEIDSILGNKPYSKKDYRT the protein stability index was 4.17. Variant SSIIHEIDSILGNKPYSKKDYRH has a protein stability index of 4.09. For SSIIHEIDSILGNKPYSKKDYRY, the protein stability index was 3.02. Work on SSIIHEIDSILGNKPYSKKDYRD yielded a protein stability index of 4.12. SSIIHEIDSILGNKPYSKKDYRP showed a protein stability index of 3.8. Variant SSIIHEIDSILGNKPYSKKDYRG has a protein stability index of 2.56. Variant SSIIHEIDSILGNKPYSKKDYRA has a protein stability index of 3.37. SSIIHEIDSILGNKPYSKKDYRF showed a protein stability index of 4.46. In the case of SSIIHEIDSILGNKPYSKKDYRC, the protein stability index is reported as 3.67. Variant SSIIHEIDSILGNKPYSKKDYRK has a protein stability index of 4.33. Work on SSIIHEIDSILGNKPYSKKDYAS yielded a protein stability index of 4.01. For SSIIHEIDSILGNKPYSKKDYYS, the protein stability index was 3.24. With SSIIHEIDSILGNKPYSKKDYGS the protein stability index was 3.98. In the case of SSIIHEIDSILGNKPYSKKDYKS, the protein stability index is reported as 4.37. SSIIHEIDSILGNKPYSKKDYDS gave a protein stability index of 4.42. Work on SSIIHEIDSILGNKPYSKKDYCS yielded a protein stability index of 3.26. Work on SSIIHEIDSILGNKPYSKKDYMS yielded a protein stability index of 3.29. With SSIIHEIDSILGNKPYSKKDYQS the protein stability index was 4.29. For SSIIHEIDSILGNKPYSKKDYVS, the protein stability index was 3.12. SSIIHEIDSILGNKPYSKKDYSS gave a protein stability index of 4.01. Work on SSIIHEIDSILGNKPYSKKDYNS yielded a protein stability index of 4.55. For SSIIHEIDSILGNKPYSKKDYFS, the protein stability index was 3.18. Variant SSIIHEIDSILGNKPYSKKDYTS has a protein stability index of 4.28. Work on SSIIHEIDSILGNKPYSKKDYLS yielded a protein stability index of 4.01. Work on SSIIHEIDSILGNKPYSKKDYWS yielded a protein stability index of 2.57. In the case of SSIIHEIDSILGNKPYSKKDYIS, the protein stability index is reported as 3.67. In the case of SSIIHEIDSILGNKPYSKKDYHS, the protein stability index is reported as 4.39. SSIIHEIDSILGNKPYSKKDYPS gave a protein stability index of 4.29.
